From article PMC6742660, “Autoinhibition and activation mechanisms of the eukaryotic lipid flippase Drs2p-Cdc50p” (Nature Communications, 2019)

Biological target: T1, Drs2p (S. cerevisiae, UniProt P39524 1-1355)
T1 construct: Drs2p, Saccharomyces cerevisiae, intact protein of 1355 residues; Co-purified with endogenous Cdc50p; Residues 196-212 of the N-terminal peptide and Glu1231-Ala1309 of the C-terminal peptide are ordered in the apo map; The last 46 residues are disordered; also called Drs2p ATPase; P4 ATPase subunit of the Drs2p-Cdc50p lipid flippase; not shown: triple FLAG, C-terminal, kept
T1 sequence (looked up): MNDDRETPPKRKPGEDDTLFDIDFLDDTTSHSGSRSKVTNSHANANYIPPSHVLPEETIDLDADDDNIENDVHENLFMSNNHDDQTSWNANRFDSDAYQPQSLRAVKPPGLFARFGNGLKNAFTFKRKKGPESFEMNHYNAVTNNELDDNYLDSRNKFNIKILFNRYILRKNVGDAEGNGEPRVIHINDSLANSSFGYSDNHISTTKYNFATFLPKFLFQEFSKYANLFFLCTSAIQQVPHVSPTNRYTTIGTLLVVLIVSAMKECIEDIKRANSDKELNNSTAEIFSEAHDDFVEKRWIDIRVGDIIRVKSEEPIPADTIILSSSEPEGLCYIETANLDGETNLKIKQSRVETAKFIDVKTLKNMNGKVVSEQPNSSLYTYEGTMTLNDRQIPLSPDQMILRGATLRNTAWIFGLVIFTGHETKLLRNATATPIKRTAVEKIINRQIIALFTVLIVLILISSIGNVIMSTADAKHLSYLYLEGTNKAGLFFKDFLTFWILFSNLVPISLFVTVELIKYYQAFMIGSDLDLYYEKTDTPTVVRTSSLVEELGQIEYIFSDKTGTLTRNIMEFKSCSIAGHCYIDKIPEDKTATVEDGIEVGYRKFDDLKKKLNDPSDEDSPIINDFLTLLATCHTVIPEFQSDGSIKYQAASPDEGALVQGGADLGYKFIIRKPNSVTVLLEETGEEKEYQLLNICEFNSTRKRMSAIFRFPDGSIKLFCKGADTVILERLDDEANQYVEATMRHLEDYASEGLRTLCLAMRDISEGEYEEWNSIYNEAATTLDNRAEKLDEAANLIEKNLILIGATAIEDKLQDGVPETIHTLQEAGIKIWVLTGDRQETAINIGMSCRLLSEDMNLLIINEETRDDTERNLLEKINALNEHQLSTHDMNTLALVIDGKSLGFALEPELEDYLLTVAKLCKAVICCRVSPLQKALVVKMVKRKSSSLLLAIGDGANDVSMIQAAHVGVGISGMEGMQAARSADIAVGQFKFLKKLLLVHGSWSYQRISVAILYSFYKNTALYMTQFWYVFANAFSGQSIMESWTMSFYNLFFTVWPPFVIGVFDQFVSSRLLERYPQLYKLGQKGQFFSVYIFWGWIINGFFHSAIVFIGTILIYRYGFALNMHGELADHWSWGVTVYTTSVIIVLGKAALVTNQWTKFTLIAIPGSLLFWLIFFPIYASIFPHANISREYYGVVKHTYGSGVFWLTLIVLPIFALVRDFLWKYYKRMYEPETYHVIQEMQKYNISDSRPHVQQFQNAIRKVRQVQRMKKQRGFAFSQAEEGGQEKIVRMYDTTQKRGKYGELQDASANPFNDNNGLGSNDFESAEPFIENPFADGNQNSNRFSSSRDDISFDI
Test: cryo-EM structure; endogenous Drs2p-Cdc50p complex as purified, apo autoinhibited form, 3 mg/mL; 0.01% LMNG, 0.001% CHS, 150 mM NaCl, 20 mM Tris-HCl pH 7.4, 1 mM MgCl2, 1 mM MnCl2; 2.8 Å map
Conditions: both partners purified

B1: Cdc50p (natural protein, S. cerevisiae, UniProt P25656 1-391, looked up)
chain: MVSLFKRGKAPPLTKEGPTSKKPPNTAFRQQRLKAWQPILSPQSVLPLLIFVACIFTPIGIGLIVSATKVQDLTIDYSHCDTKASTTAFEDIPKKYIKYHFKSKVENKPQWRLTENENGEQSCELQFEIPNDIKKSIFIYYKITNFYQNHRRYVQSFDTKQILGEPIKKDDLDTSCSPIRSREDKIIYPCGLIANSMFNDTFSQVLSGIDDTEDYNLTNKHISWSIDRHRFKTTKYNASDIVPPPNWMKKYPDGYTDENLPDIHTWEEFQVWMRTAAFPKFYKLTLKNESASLPKGKYQMNIELNYPISLFGGTKSFVLTTNGAIGGRNMSLGVLYLIVAGLCALFGIIFLVKLIFQPRAMGDHTYLNFDDEENEDYEDVHAENTTLREIL
modifications: N-glycans at Asn-199, Asn-216 and Asn-288; disulfide bonds Cys-80 with Cys-123 and Cys-176 with Cys-190
notes: Cdc50p, Saccharomyces cerevisiae, endogenous untagged subunit of the Drs2p-Cdc50p complex; The first half of the 40-residue N-terminal peptide and the 31-residue C-terminal peptide are disordered in the map
  binding result: binds
